In article PMC1852638 one finds Ki data, which are given here for one substance.

Usually Ki stands for a dissociation constant, usually derived from enzyme kinetics or from competition with a known ligand. A high value points to weaker binding.

Test [1] has as its target myosin 5 heavy meromyosin (HMM) (UniProt Q99104). The test can be described thus: inhibition of actin-activated MgATPase.
Test [2] shares this target. The test can be described thus: inhibition of actin-activated MgATPase. The source holds these as a separate data set.

Where two headings read alike, the source gives them in different places.

Consider “glutathione S-transferase (GST)-47 kDa GTD fusion protein, dimer (from UniProt Q99104 1-1853) (domain or fragment)”, for which the figures for the Ki in test [1] and in test [2] were 750 nM and 530 nM, respectively.
